# B1: G domain of SEPT7 (domain or fragment)
# chain: YRKSVKRGFEFTLMVVGESGLGKSTLINSLFLTDLYSPEYPGPSHRIKKTVQVEQSKVLIKEGGVQLLLTIVDTPGFGDAVDNSNCWQPVIDYIDSKFEDYLNAESRVNRRQMPDNRVQCCLYFIAPSGHGLKPLDIEFMKRLHEKVNIIPLIAKADTLTPEECQQFKKQIMKEIQEHKIKIYEFPETDDEEENKLVKKIKDRLPLAVVGSNTIIEVNGKRVRGRQYPWGVAEVENGEHCDFTILRNMLIRTHMQDLKDVTNNVHYENYRSRKLAAVT
# Biological target: the molecule itself
# Test: SEC-MALS
protein,measurement,value
B1,stoichiometry N,2

# — paper doi:10.1101/2020.07.08.161463 (bioRxiv, 2020)
